Source: a protein production outcome set (Wang et al. 2014)

Assay: label from the status in PepcDB records
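Also: failed if final PepcDB status was selected cloned or expressed and not failed if soluble or beyond.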

In the case of “MVNPAQARQLDKIRKVNYASNTFELIAKEWLQMKDWAEITKTRRLDMLERVVFPAIGKLPVREITPHHILKILQETAKRGAPTVAAEARRTISSVFELAVATLRADSDPVWPVRKALPALEHHHHHH”, the protein production is reported as “failed”.
In the case of “MRKILVVGAGQSGLQLALGLQSHGYEVTLMSNRTADEIRSGRVMSTQCMFDTALGHERDLQLNFWESQAPKIEGLGVSVAAPGSFDPGPSQRAIDWVGKLDGYAQSVDQRVKMAGWMETFAQRGGQLVIHGAAVSDLDYFSRAYDLVLVSAGKGELVSMFGRDASRSPYSEPQRALAVAYVHGLGPRPEHPDYDAVRCNLVPGVGELFVMPTLTTSGRADILFWEGIPGGPLDVFKGVNDPGEHLSLTLELMERFTPWEYARATKVELTDGNGTLAGRYAPTVRNPVGRLPGGGLVLGVADVVVANDPITGQGSNSASKCAAAYLASIVEHGEKEFDETWMRATFDRYWDTAQHVTKWTNAMLGVPPEHVLNLIGAAGALQPVANRFANGFDNPADFENFFYEPEKTEAYLASVAGS”, the protein production is reported as “failed”.
For “MHQSVIDPQGLIDLKILIVIALCLLFSPHIAKILRLPLSATEIILGAIIAYFGFIGKSENFALLANVGFYYLMFIAGMEVNLRAFFNMDKEIAKKSFFYIFLLYALSSLIVWIFGLSLVFVIIIPVMSVGLLSLLFKDFGKECYWLNIAMIVATLAEVISIVLLTIAGAFLREGTGIIDVAQSILYLNIFLGLCLLGFKMLGVLFWWYPQLKVVLMPWEDKNEKDIRFCMAIFILIIVAMVITKLEIVLGSFIAGSFIATFFDHKKDLEHKLSTFGHGFLIPIFFIHIGSTFDLKMILDYKIVLQAFLLMFVMVGLRILCASVFLKRIGFKNMILFGLSHSMPLTLLIATATLGYSGKVIDEKLYSALILTALFEAIIVMSMIKFLSNSKK”, the protein production was “failed”.
For “MNLDLGSTVRGYESDKDTFPQSKGVSSSQKEQHSQLNQTKIAYEQRLLNDLEDMDDPLDLFLDYMIWISTSYIEVDSESGQEVLRSTMERCLIYIQDMETYRNDPRFLKIWIWYINLFLSNNFHESENTFKYMFNKGIGTKLSLFYEEFSKLLENAQFFLEAKVLLELGAENNCRPYNRLLRSLSNYEDRLREMNIVENQNSVPDSRERLKGRLIYRTAPFFIRKFLTSSLMTDDKENRANLNSNVGVGKSAPNVYQDSIVVADFKSETERLNLNSSKQPSNQRLKNGNKKTSIYADQKQSNNPVYKLINTPGRKPERIVFNFNLIYPENDEEFNTEEILAMIKGLYKVQRRGKKHTEDYTSDKNRKKRKLDVLVERRQDLPSSQPPVVPKSTRIEVFKDDDNPSQSTHHKNTQVQVQTTTSILPLKPVVDGNLAHETPVKPSLTSNASRSPTVTAFSKDAINEVFSMFNQHYSTPGALLDGDDTTTSKFNVFENFTQEFTAKNIEDLTEVKDPKQETVSQQTTSTNETNDRYERLSNSSTRPEKADYMTPIKETTETDVVPIIQTPKEQIRTEDKKSGDNTETQTQLTSTTIQSSPFLTQPEPQAEKLLQTAEHSEKSKEHYPTIIPPFTKIKNQPPVIIENPLSNNLRAKFLSEISPPLFQYNTFYNYNQELKMSSLLKKIHRVSRNENKNPIVDFKKTGDLYCIRGELGEGGYATVYLAESSQGHLRALKVEKPASVWEYYIMSQVEFRLRKSTILKSIINASALHLFLDESYLVLNYASQGTVLDLINLQREKAIDGNGIMDEYLCMFITVELMKVLEKIHEVGIIHGDLKPDNCMIRLEKPGEPLGAHYMRNGEDGWENKGIYLIDFGRSFDMTLLPPGTKFKSNWKADQQDCWEMRAGKPWSYEADYYGLAGVIHSMLFGKFIETIQLQNGRCKLKNPFKRYWKKEIWGVIFDLLLNSGQASNQALPMTEKIVEIRNLIESHLEQHAENHLRNVILSIEEELSHFQYKGKPSRRF”, the protein production was “failed”.
For “AEIVEGRDYTVLSAPQPTEGDSEHIEVIEFFWYGCPHCSDLHPHLSRWLENKPADVAFRFVPAILRNNWVPGAKTFYAMESLGLTQTLHDKVYHAIHREKTDLSKEATLFDWIGKQGVDRDKFIGAYNSFTVQNQANRSAQMIRQYKLTGVPALVVDGRYLTSGKAGGTPQDTISVLNQLIEK”, the protein production was “failed”.
With “MGTAMRSVAWGLAIALWPIAVWAENPEDLQRLLTTRQCERCDLQDSGLVLARLSGARLTGSNLQRANLSGADLSGADLRQTDLRGASLQRANLAGANLTGARLDGVDLREAWLTEAILTPQQLALAHIQGAQGLDVTALPFERYQAWGIEAIQAGRFERAISYFDLALQRNPKSASTYLSRAIAYQGLGRSEQAIADAQAAEQLYKSQQNPEGEKRSQELRTTIVAAQERVASSGSNGGNGGGSAALAVLTGIVQGVLPFLLGFPF” the protein production was “failed”.
For “MPLSTSDNIAAVIVTHKRVELLRASLEVVAAQTHPVKWIIVVDNGCEDAVRDLLHSVAGDRGIYLPSHTNLGGAGGFAYGFLTALALGADAIWCADDDGRPEGPQVLATLIDAAVTHQLDEVSPVVCNMDDPNRLAFPLRRGLEWRRYRSELIDPNNPSDTLLPGIASLFNGALISAAAMERIGVPDLRLFIRGDEVEYHRRLVRSGLNFGTCLTTAYLHPDGSDEFKPILGGRMHTQYPASDAKRYFTYRNRGYLMNQPGMRRLLPQEYARFAWFFLIQRRDPRGFLEWFKLHQLGRSEKFERPLEHHHHHH”, the protein production was “failed”.
In the case of “MEEISGGALTDTLTDIVTWAAKEVGAIALGASLGAIFGTAYAGRWGGVSGGIFGIGSIGQGVGMIAGVILGGVCFGIAAGIVGWDMTLDYAQGVMDAIYDGTLNFWSN”, the protein production is reported as “failed”.
In the case of “MTGLINAIPATNKDEYKNVGVYIEHRGDELKRPSIEMIGIGKQLARKVNEKLICVVIGDKVDGIAKEVGEYGCDIVLAAESPELAEYRTMPYAEIIGGYIQEYKPNIFLLAATRNGRDLASRIAVKSRTGITADCTVLDIDENRTLLANRPTYGESTLAEILCRNHRPQMATARPGIFPPAEKEKDHKYEVIKKKVDVDKKLLGKQILKFIPRKSTDLTSAKIVVAGGLGLGGPDGFKMLEELANLIGGAVGSSRPPVDLGWITRDHQVGQTGQSVRPDLYIAVGISGKPQHIAGMKFSKVIVSINKDPNAEITKYSDYIITEDYRKVIPALIDAIKNSKKAQAPVQKA”, the protein production is reported as “failed”.
With “MTTTFEFLQPRIHGFATCCSSNSLLYSKASRFFNDRCRVYRQNPNRFVSNSITLPLQKKQVTVLRNHERFNLWDGFSRKKSRLVVNCQEDDQNESSSEEEESSQSTPAKSERKREKKEDKVWWSKGKKWQWQPIIQAQGIGVLLLQLSVVMFVMRLLRPGIPLPGSEPRIQTTFVSVPYSEFLSKVNSNQVQKVEVDGVQVLFKLRDDGKWQESETSRLSQSSESLLRTVAPTKRVVYSTTRPGDIKTPYEKMLGNNVEFGSPEKRSGGFFNSALIALFYIAVLAGLIRFPVSFSTSSTGQLRTRKAGGPDGGKVSGGGETITFADVAGVDEAKEELEEIVEFLRNPEKYVRLGARPPRGVLLVGLPGTGKTLLAKAVAGEAEVPFISCSASEFVELYVGMGASRVRDLFARAKKEAPSIIFIDEIDAVAKSRDGKFRMGSNDEREQTLNQLLTEMDGFDSNSAVIVLGATNRADVLDPALRRPGRFDRVVTVETPDKIGRESILRVHVSKKELPLGDDVNLGSIASMTTGFTGADLANLVNEAALLAGRKNKTNVEKIDFIQAVERSIAGIEKKSARLKGNEKAVVARHEAGHAVVGTAVANLLTGQPRVEKLSILPRTGGALGFTYIPPTSEDRYLLFIDELLGRLVTLLGGRAAEEVVYSGRISTGAFDDIRRATDMAYKAVAEYGLNQKIGPVSVATLSGGGIDDSGGSPWGRDQGKLVDLVQKEVTILLQSALDVALSVVRANPDVLEGLGAQLEEKEKVEGEELQKWLSMVVAPEELAVFVEGKQELLLPAQASSS” the protein production was “failed”.
In the case of “MDELFTESAKAVLAIAQEEAKYFRHQSVGSEHLLLALVLEPNGIAGKTLRQLNTDTEDIREEIEHLSGYGTMQSPMGNNNLYLPYSPRAKQIFAYAGDEAKRLGAQKIGTEHLLLGLLRDEEILASRILVNLGLSLSKMRQLLLKKMG”, the protein production is reported as “not failed”.
With “VWRQYASRALQELGAGKRAIHDVADLTRGSLRIAVTPTFTSYFIGPLMADFYARYPSITLQLQEMSQEKIEDMLCRDELDVGIAFAPVHSPELEAIPLLTESLALVVAQHHPLAVHEQVALSRLHDEKLVLLSAEFATREQIDHYCEKAGLHPQVVIEANSISAVLELIRRTSLSTLLPAAIATQHDGLKAISLAPPLLERTAVLLRRKNSWQTAAAKAFLHMALDKCAVVGGNESR” the protein production was “not failed”.
For “MILLYLHIYEQKGSGTLNPVAFTLFGLEIRWYGILIATGVILGLFMAYSNSKLREIEYDSVLDIILISLPIGIIGARLYYVIFQFKSYNGNIIDMINIRNGGLAIHGGLIFGCLAAYIYSRYKKLSFLKLMDIAAPSIILAQALGRWGNFFNGEAHGGPVTYSFIEKFPKFIQKGMTIDGMYYNPTFLYESTWDFVTFIILMLLIRKCKNKGVVFFGYVGLYSLGRFFIEGMRTDSLMLGPIRVAQLVSILGMLISLGFITFSYVKTKRISK”, the protein production was “failed”.
In the case of “NSHKVQMEKEIALKQKKFEQKHLQNYTDEIVGLYNEIRGFRHDYAGMLVSMQMAIDSGNLQEIDRIYNEVLVKANHKLRSDKYTYFDLNNIEDSALRSLVAQSIVYARNNGVEFTLEVKDTITKLPIELLDLVRIMSVLLNNAVEGSADSYKKQMEVAVIKMETETVIVIQNSCKMTMTPSGDLFALGFSTKGRNRGVGLNNVKELLDKYNNIILETEMEGSTFRQIIRFKREFE”, the protein production is reported as “failed”.
With “MNSDPTRERILHGLITLYILKELVKRPMHGYELQKSMFETTGQALPQGSIYILLKTMKERGFVISESSVNEKGQQLTVYHITDAGKKFLCDHSQALQLARKIIDDLLSTVDIIENRN” the protein production was “not failed”.
In the case of “MKVLETATQVLEWTAHDTQLLVVAALGIALIVVLIAKLKLHPFLALVLGSAFVGLASGVELGKVITNFEDGVGGVLKEVGLLIALGAMLGKLLADSGGANRVVDTLLAKASGNKLVWMITLVAVIIGLPMFFEIGLVLLLPVIVLVTQRSKMKLMRIAIPALAGLSVLHGLVPPHPGPLIAISAVKAELGTTLGLGILVAIPTVIICGPLFSRLAARWVPVDAPAVAGGIDTQHAADLSEVKRQPSFLVTLLTIIFPVVLMLLKALGGIIWPNPETAPAIRIFFDFVGQPLVAMTLAVLLAIVTFGYAVGFTGSRITAKLGESLGPIAAILLIVGAGGGFKQTLIGAGVGDAVKKWAEGANMSVLVLGFIVAVALRLATGSATVATVTAAGIVAPLASSLSPTHAALLALAIGAGSLFLSHVNDAGFWLVKELFGLTVGQTFKTWSVMETLISVVGFGFVMLLSLVL”, the protein production is reported as “failed”.
For “MITKVTARNNKITPVELLNQKFGNKINLGNFADAVFTDAAFKNVAGIANLPMKAPVMQVLMENCIVSKYLKQFVPDRSVCFVEEGQKFYIVLEDGQKIEVPEDVNKALKATVSDVKHWAGYLTEDGEHVIDLLKPAPGPHFYVNLLIGNRLGFKRTLQTTPKSVVDRFGRGSFRSHAATQVLATRFDMRQEENGFPANRQFYLYEDGKQIFYSALIDDNIVEATCKHSCNRTVIKYKTACNLEITRTIFLVPHKKGFPLATELQRIEIKNASDKARNLSITYTGMFGTGAVHAIFEDVTYTNVIMQSAALYNDKGEFIGITPDYYPEEFKQDTRFVTMIVRNGDEKSFPQSFCTDYNDFVGTGTLEHPAGGCNLNNKLNRKGPGFFALGAPFTVEPGKTVIIDTFTGLSSSKDNENYSDAVMLRELDNLLRYFEKSESVEETLNEIINFHENYGKYFQFNTGNKLFDSGFNRNLAFQVLYQTFMSRSFGQTQKGYREIGFREIQDLFASMYYFINIGYQDFVKELLFEWTANVYKMGYANHNFYWVGKQPGLYSDDSLWLLQAYYRYIIYTKDTSVLNEEVPVADGNNEKRAVRETLKAIIQYSACISVGDHGLPLLDLADWNDCLKIASNSIDGATKEKLYYEQLKKTNGKYGDRFMSDYSESVMNAFLLKLAIDHLAEIATLDNDTQLAQQMSELSKEVTDRIQKHAWKENFFARVLINRYKDGSYTYLGAKGDKLSADPNIDGVYFLNSFAWSVLSDVATDEQIAIMVDVIKKHLLTPYGLRLVTPADLNKIANDTATGHYFFGDRENGAVFKHASMMAVAALIKAAKKVKDNELAKEMARIAYFMIDLVLPYKNLENPFQVAGNPRICTQYINTDTGENIGPLLSGTATWLNLNLISLAGIEYTRDGISFNPILREEETQLNFTLKAPKCSYKFSITKPVGFARMESSEYELFVDGQKIDNTVIPMYTDEKEHIVTLKFK”, the protein production was “not failed”.
